Source: patent US20110265198

How the values were obtained:
Assay in all cases: cell_activity
ZFN 18477 (synthetic) = conditions: pair with 18473; Cel-I assay
ZFN 25096 (synthetic) = conditions: pair with 18473; Cel-I assay
ZFN 18473 (synthetic) = conditions: pair with 25096 (26.5% with 18477); Cel-I assay

**Q.** With “CTAGAAAGACTGGAGTTGCAGATCACGA (double strand) [18477 target]” as the sequence, how does the activity (ZFN 18477 (synthetic)) read?
**A.** 26.5 % NHEJ

**Q.** “CTAGAAAGACTGGAGTTGCAGATCACGA (double strand) [25096 target]” was tested. Which activity (ZFN 25096 (synthetic)) did it give?
**A.** 35.7 % NHEJ

**Q.** For “GATGGGCGGGAGTCTTCTGGGCAGGCTT (double strand) [18473 target]”, which activity (ZFN 18473 (synthetic)) is on record?
**A.** 35.7 % NHEJ
